# B1: TB006 (antibody, human IgG4 S228P, kappa, V domains shown)
# VH: QVQLVQSGAEVKKPGASVKVSCKASGYSFTNYYMHWVRQAPGQRLEWMGWIYPGSGNTNYNEKFQGRVTITADTSASTAYMELSSLRSEDTAVYYCSTAPGGFDVWGQGTTVTVSS
# VL: DIVMTQTPLSLSVTPGQPASISCKSSKSLLHSDGITYLYWYLQKPGQSPQLLIYRMSNLASGVPDRFSGSGSGTDFTLKISRVEAEDVGVYYCAQMLEFPLTFGQGTKLEIKR
# notes: also called 4A11.H3L1; IMT006a
# How the values were obtained:
# [1] = target: T1, human Gal3 protein (recombinant human Galectin-3) (human, UniProt P17931 2-250); test: ELISA biological activity, accelerated stability 25°C/60% RH, 0 months
# T1 construct: also called hGal3; hGAL3
# T1 sequence (P17931 2-250 limits assumed): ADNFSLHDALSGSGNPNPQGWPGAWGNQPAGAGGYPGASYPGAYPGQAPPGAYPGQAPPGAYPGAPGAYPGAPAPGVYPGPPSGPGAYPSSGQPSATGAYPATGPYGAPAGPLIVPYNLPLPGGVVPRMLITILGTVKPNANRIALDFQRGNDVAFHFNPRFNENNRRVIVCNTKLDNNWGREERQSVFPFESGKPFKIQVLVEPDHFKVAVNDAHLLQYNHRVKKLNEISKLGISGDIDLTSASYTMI
# [2] = target: T1, human Gal3 protein (recombinant human …); test: ELISA blocking assay (blocked partner not stated), in-use stability bag #2, 1 h
# [3] = target: T1, human Gal3 protein (recombinant human …); test: ELISA biological activity, long-term stability 5°C, 3 months
# [4] = target: T1, human Gal3 protein (recombinant human …); test: BLI binding activity, long-term stability 5°C, 3 months
# [5] = target: T1, human Gal3 protein (recombinant human …); test: ELISA biological activity, long-term stability 5°C, 0 months; 5° C., 0 months
# [6] = target: T1, human Gal3 protein (recombinant human …); test: method not stated (FIG. 20)
# mouse Gal3 = mouse Gal3 (mouse, UniProt P16110 2-264); test: method not stated (FIG. 20)
# mouse Gal3, sequence (P16110 2-264 limits assumed): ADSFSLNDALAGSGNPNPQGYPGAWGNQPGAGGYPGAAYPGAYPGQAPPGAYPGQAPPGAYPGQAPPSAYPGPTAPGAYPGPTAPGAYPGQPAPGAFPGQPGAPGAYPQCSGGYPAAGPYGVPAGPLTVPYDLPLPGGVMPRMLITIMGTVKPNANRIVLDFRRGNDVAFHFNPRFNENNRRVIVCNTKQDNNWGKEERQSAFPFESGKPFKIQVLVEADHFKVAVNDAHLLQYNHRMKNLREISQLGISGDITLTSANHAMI
# [7] = target: T1, human Gal3 protein (recombinant human …); test: ELISA blocking assay (blocked partner not stated), in-use stability bag #1, 0 h; Bag #1, 0 h
# [8] = target: T1, human Gal3 protein (recombinant human …); test: BLI binding activity, accelerated stability 25°C/60% RH, 0 months
# [9] = target: T1, human Gal3 protein (recombinant human …); test: ELISA blocking assay (blocked partner not stated), in-use stability bag #1, 1 h
# [10] = target: T1, human Gal3 protein (recombinant human …); test: ELISA blocking assay (blocked partner not stated), in-use stability bag #1, 2 h
# [11] = target: T1, human Gal3 protein (recombinant human …); test: BLI binding activity, accelerated stability 25°C/60% RH, 3 months
# [12] = target: T1, human Gal3 protein (recombinant human …); test: BLI binding activity, accelerated stability 25°C/60% RH, 1 month
# [13] = target: T2, Recombinant human Gal3 (rhGal3) (TrueBinding, #QC200361) (human, UniProt P17931 2-250); test: cell-based or functional assay
# [14] = target: T1, human Gal3 protein (recombinant human …); test: ELISA blocking assay (blocked partner not stated), in-use stability bag #2, 4 h
# [15] = target: T1, human Gal3 protein (recombinant human …); test: BLI binding activity, long-term stability 5°C, 0 months
# [16] = target: T1, human Gal3 protein (recombinant human …); test: ELISA blocking assay (blocked partner not stated), in-use stability bag #1, 0.5 h
# [17] = target: T1, human Gal3 protein (recombinant human …); test: ELISA blocking assay (blocked partner not stated), in-use stability bag #2, 0.5 h
# [18] = target: T1, human Gal3 protein (recombinant human …); test: ELISA biological activity, accelerated stability 25°C/60% RH, 1 month
# [19] = target: T2, Recombinant human Gal3 (rhGal3) …; test: cell-based or functional assay; remark: listed apart in the source
# [20] = target: T1, human Gal3 protein (recombinant human …); test: ELISA biological activity, accelerated stability 25°C/60% RH, 3 months
# [21] = target: T1, human Gal3 protein (recombinant human …); test: ELISA biological activity, long-term stability 5°C, 1 month
# [22] = target: T1, human Gal3 protein (recombinant human …); test: ELISA blocking assay (blocked partner not stated), in-use stability bag #2, 0 h
# [23] = target: T1, human Gal3 protein (recombinant human …); test: BLI binding activity, long-term stability 5°C, 1 month
# [24] = target: T1, human Gal3 protein (recombinant human …); test: ELISA blocking assay (blocked partner not stated), in-use stability bag #1, 4 h
# [25] = target: T1, human Gal3 protein (recombinant human …); test: ELISA blocking assay (blocked partner not stated), in-use stability bag #2, 2 h
binder,measurement,setting,value
B1,IC50,[1],2.5 µg/mL
same,IC50,[2],1.63 µg/mL
same,IC50,[3],1.5 µg/mL
same,Kd,[4],3 nM
same,IC50,[5],2.5 µg/mL
same,Kd,[6],8.9 nM
same,Kd,mouse Gal3,40 µM
same,IC50,[7],1.01 µg/mL
same,Kd,[8],3 nM
same,IC50,[9],1.43 µg/mL
same,IC50,[10],1.71 µg/mL
same,Kd,[11],3.1 nM
same,Kd,[12],2.5 nM
same,% inhibition of CD62L shedding,[13],76.1%
same,IC50,[14],1.35 µg/mL
same,Kd,[15],3 nM
same,IC50,[16],1.34 µg/mL
same,IC50,[17],1.66 µg/mL
same,IC50,[18],1.8 µg/mL
same,IC50 of blocking IL-6 secretion by HL60-derived neutrophils (rhGal3 + LPS),[19],0.0337 µM
same,IC50 of blocking TNFα secretion by HL60-derived neutrophils (rhGal3 + LPS),[19],0.0111 µM
same,IC50,[20],1.5 µg/mL
same,IC50,[21],1.8 µg/mL
same,IC50,[22],1.05 µg/mL
same,Kd,[23],2.5 nM
same,IC50,[24],1.41 µg/mL
same,IC50,[25],1.67 µg/mL

# — US20250243282A1 (TRUEBINDING, published 2025)
